Our source for the ratio β-galactosidase activity tested strain/R721 and β-galactosidase activity values is publication PMC4595432.

The target of the test is DnaA fused to the N-terminal domain of the phage 434 repressor (pcI434-dnaA) (E. coli K12) (UniProt P03004). Put plainly: two-hybrid; bacterial two-hybrid system in E. coli R721 (434-P22 chimeric operator upstream of lacZ); fusions to the N-terminal domains of the 434 and P22 repressors; β-galactosidase in Miller units, cultures at A600 0.5 in LB with 0.1 mM IPTG; an interaction lowers the activity and is scored positive when the ratio to R721 is below 0.5.

For “HtpG fused to the N-terminal domain of the phage P22 repressor (pcIP22-htpG) (from UniProt P0A6Z3 1-624) (natural protein)”, the ratio β-galactosidase activity tested strain/R721 stood at 0.19 and the β-galactosidase activity turned out to be 1070 Miller units.
